From PMC9352680, “A comprehensive thermodynamic model for RNA binding by the Saccharomyces cerevisiae Pumilio protein PUF4”

Molecular target: T1, PUF4 RNA-binding domain (Saccharomyces cerevisiae, UniProt P25339 537-888)
T1 sequence: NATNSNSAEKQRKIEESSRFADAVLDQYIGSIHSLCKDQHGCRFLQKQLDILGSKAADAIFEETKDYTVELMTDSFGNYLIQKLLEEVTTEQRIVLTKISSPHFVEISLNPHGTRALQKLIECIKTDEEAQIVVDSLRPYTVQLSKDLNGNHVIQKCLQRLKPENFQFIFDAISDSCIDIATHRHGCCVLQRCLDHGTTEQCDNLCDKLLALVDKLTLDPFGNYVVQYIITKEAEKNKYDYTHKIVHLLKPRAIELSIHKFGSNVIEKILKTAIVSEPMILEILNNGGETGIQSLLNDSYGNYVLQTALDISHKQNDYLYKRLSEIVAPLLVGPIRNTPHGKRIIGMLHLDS
Assay: Mg; RNA-MaP; 20 mM Na-HEPES pH 7.4, 30 mM KOAc, 0.75 mM MgCl2, 0.1% Tween-20, 5% glycerol, 0.1 mg/mL BSA, 2 mM DTT; 25 C; 0.0125-409.6 nM protein
Details: tags: N-His6-TEV cleaved; C-SNAP kept, Cy3B-labelled; label: tethered on chip by stalled RNA polymerase

**Q.** With UCUCUUUGUAUAUACGUCUCUU (ssRNA) [Ic_S1_P5E.1_K5.1_C5.1_H5.1_A5.1_[T6A]_[A7T]_F5.1_[T8A]_[T9C]_[A10G]_T5.1] as the binder, how does the Kd read?
**A.** 14.9 nM

**Q.** For UCUCUUGGUAUGUAUCUCUU (ssRNA) [Ib_S1_P3E.1_K3.1_C3.1_H3.1_[T1G]_A3.1_[A6G]_F3.1_T3.1], which Kd is on record?
**A.** 723 nM

**Q.** With UCUCUUUGUACCUAUUUCUCUU (ssRNA) [Ic_S1_P5E.1_K5.1_C5.1_H5.1_A5.1_[T5C]_[T6C]_[A7T]_F5.1_[T8A]_[A10T]_T5.1] as the binder, how does the Kd read?
**A.** 48.7 nM

**Q.** Which Kd does the source give for UCUCUUUGUACACGCGUCUCUU (ssRNA) [Ic_S1_P5E.1_K5.1_C5.1_H5.1_A5.1_[T5C]_[T6A]_[A7C]_F5.1_[T8G]_[T9C]_[A10G]_T5.1] here?
**A.** 709 nM

**Q.** UCUCUUUGUAAUGGUUUCUCUU (ssRNA) [Ic_S1_P5E.1_K5.1_C5.1_H5.1_A5.1_[T5A]_[A7G]_F5.1_[T8G]_[A10T]_T5.1] was tested. Which Kd did it give?
**A.** 1060 nM

**Q.** UCUCUUUGUAUUGCCUUCUCUU (ssRNA) [Ic_S1_P5E.1_K5.1_C5.1_H5.1_A5.1_[A7G]_F5.1_[T8C]_[T9C]_[A10T]_T5.1] was tested. Which Kd did it give?
**A.** 652 nM

**Q.** Which Kd does the source give for UCUCUUUGUAUUUAAAUCUCUU (ssRNA) [Ic_S1_P5E.1_K5.1_C5.1_H5.1_A5.1_[A7T]_F5.1_[T8A]_[T9A]_T5.1] here?
**A.** 106 nM

**Q.** How did the Kd turn out when UCUCUUUGUAAAUCCCUCUCUU (ssRNA) [Ic_S1_P5E.1_K5.1_C5.1_H5.1_A5.1_[T5A]_[T6A]_[A7T]_F5.1_[T8C]_[T9C]_[A10C]_T5.1] was run?
**A.** 240 nM

**Q.** How did the Kd turn out when UCUCUUUGUACUGUAAUCUCUU (ssRNA) [Ic_S1_P5E.1_K5.1_C5.1_H5.1_A5.1_[T5C]_[A7G]_F5.1_[T9A]_T5.1] was run?
**A.** 7.89 nM

**Q.** How did the Kd turn out when UCUCUUUGUAUACGGCUCUCUU (ssRNA) [Ic_S1_P5E.1_K5.1_C5.1_H5.1_A5.1_[T6A]_[A7C]_F5.1_[T8G]_[T9G]_[A10C]_T5.1] was run?
**A.** 460 nM

**Q.** With UCUCUUUGUAUAAACGUCUCUU (ssRNA) [Ic_S1_P5E.1_K5.1_C5.1_H5.1_A5.1_[T6A]_F5.1_[T8A]_[T9C]_[A10G]_T5.1] as the binder, how does the Kd read?
**A.** 378 nM

**Q.** Which Kd does the source give for UCUCUUUGUAUAGCAUUCUCUU (ssRNA) [Ic_S1_P5E.1_K5.1_C5.1_H5.1_A5.1_[T6A]_[A7G]_F5.1_[T8C]_[T9A]_[A10T]_T5.1] here?
**A.** 32.4 nM

**Q.** For UCUCUUUGUAUAUUGUCUCUU (ssRNA) [Ic_S1_P4E.1_K4.1_C4.1_H4.1_A4.1_F4.1_[A9G]_T4.1], which Kd is on record?
**A.** 3.06 nM

**Q.** Which Kd does the source give for UCUCUUGGUAUUUAUCUCUU (ssRNA) [Ib_S1_P3E.1_K3.1_C3.1_H3.1_[T1G]_A3.1_[A6T]_F3.1_T3.1] here?
**A.** > 2300 nM

**Q.** How did the Kd turn out when UCUCUUUGUAGCUACGUCUCUU (ssRNA) [Ic_S1_P5E.1_K5.1_C5.1_H5.1_A5.1_[T5G]_[T6C]_[A7T]_F5.1_[T8A]_[T9C]_[A10G]_T5.1] was run?
**A.** > 2300 nM

**Q.** Which Kd does the source give for UCUCUUUGUACCUCCCUCUCUU (ssRNA) [Ic_S1_P5E.1_K5.1_C5.1_H5.1_A5.1_[T5C]_[T6C]_[A7T]_F5.1_[T8C]_[T9C]_[A10C]_T5.1] here?
**A.** 414 nM

**Q.** How did the Kd turn out when UCUCUUUGUAUCCUAUUCUCUU (ssRNA) [Ic_S1_P5E.1_K5.1_C5.1_H5.1_A5.1_[T6C]_[A7C]_F5.1_[T9A]_[A10T]_T5.1] was run?
**A.** 5.11 nM

**Q.** Which Kd does the source give for UCUCUUUGUAAGUAAAUCUCUU (ssRNA) [Ic_S1_P5E.1_K5.1_C5.1_H5.1_A5.1_[T5A]_[T6G]_[A7T]_F5.1_[T8A]_[T9A]_T5.1] here?
**A.** 2150 nM

**Q.** How did the Kd turn out when UCUCUUUGUACUCCCUUCUCUU (ssRNA) [Ic_S1_P5E.1_K5.1_C5.1_H5.1_A5.1_[T5C]_[A7C]_F5.1_[T8C]_[T9C]_[A10T]_T5.1] was run?
**A.** 496 nM

**Q.** Which Kd does the source give for UCUCUUUGUAUCGCUGUCUCUU (ssRNA) [Ic_S1_P5E.1_K5.1_C5.1_H5.1_A5.1_[T6C]_[A7G]_F5.1_[T8C]_[A10G]_T5.1] here?
**A.** 978 nM

**Q.** For UCUCUUUGUAUCCAUUUCUCUU (ssRNA) [Ic_S1_P5E.1_K5.1_C5.1_H5.1_A5.1_[T6C]_[A7C]_F5.1_[T8A]_[A10T]_T5.1], which Kd is on record?
**A.** 119 nM

**Q.** For UCUCUUUGUACAAUAGUCUCUU (ssRNA) [Ic_S1_P5E.1_K5.1_C5.1_H5.1_A5.1_[T5C]_[T6A]_F5.1_[T9A]_[A10G]_T5.1], which Kd is on record?
**A.** 0.742 nM

**Q.** Which Kd does the source give for UCUCUUUGUACGUCUGUCUCUU (ssRNA) [Ic_S1_P5E.1_K5.1_C5.1_H5.1_A5.1_[T5C]_[T6G]_[A7T]_F5.1_[T8C]_[A10G]_T5.1] here?
**A.** 697 nM

**Q.** UCUCUUUGUACUUCCCUCUCUU (ssRNA) [Ic_S1_P5E.1_K5.1_C5.1_H5.1_A5.1_[T5C]_[A7T]_F5.1_[T8C]_[T9C]_[A10C]_T5.1] was tested. Which Kd did it give?
**A.** 782 nM

**Q.** For UCUCUUCGUAUGUAUCUCUU (ssRNA) [Ib_S1_P3E.1_K3.1_C3.1_H3.1_[T1C]_A3.1_[A6G]_F3.1_T3.1], which Kd is on record?
**A.** 932 nM

**Q.** Which Kd does the source give for UCUCUUUGUAUACCGGUCUCUU (ssRNA) [Ic_S1_P5E.1_K5.1_C5.1_H5.1_A5.1_[T6A]_[A7C]_F5.1_[T8C]_[T9G]_[A10G]_T5.1] here?
**A.** 470 nM

**Q.** With UCUCUUUGUAACGGCCUCUCUU (ssRNA) [Ic_S1_P5E.1_K5.1_C5.1_H5.1_A5.1_[T5A]_[T6C]_[A7G]_F5.1_[T8G]_[T9C]_[A10C]_T5.1] as the binder, how does the Kd read?
**A.** > 2300 nM

**Q.** UCUCUUUGUAAAACACUCUCUU (ssRNA) [Ic_S1_P5E.1_K5.1_C5.1_H5.1_A5.1_[T5A]_[T6A]_F5.1_[T8C]_[T9A]_[A10C]_T5.1] was tested. Which Kd did it give?
**A.** 56.4 nM

**Q.** With UCUCUUUGUACGACCAUCUCUU (ssRNA) [Ic_S1_P5E.1_K5.1_C5.1_H5.1_A5.1_[T5C]_[T6G]_F5.1_[T8C]_[T9C]_T5.1] as the binder, how does the Kd read?
**A.** 1000 nM

**Q.** Which Kd does the source give for UCUCUUUGUAACUAAAUCUCUU (ssRNA) [Ic_S1_P5E.1_K5.1_C5.1_H5.1_A5.1_[T5A]_[T6C]_[A7T]_F5.1_[T8A]_[T9A]_T5.1] here?
**A.** 506 nM

**Q.** How did the Kd turn out when UCUCUUUGUAUAUAAUUCUCUU (ssRNA) [Ic_S1_P5E.1_K5.1_C5.1_H5.1_A5.1_[T6A]_[A7T]_F5.1_[T8A]_[T9A]_[A10T]_T5.1] was run?
**A.** 4.21 nM

**Q.** With UCUCUUUGUAUCCAGUUCUCUU (ssRNA) [Ic_S1_P5E.1_K5.1_C5.1_H5.1_A5.1_[T6C]_[A7C]_F5.1_[T8A]_[T9G]_[A10T]_T5.1] as the binder, how does the Kd read?
**A.** 1040 nM
